Biological target: Von Willebrand factor (VWF) (UniProt P04275)
Assay: ELISA

## FVIII 336(P4-P3')562 variant (B-domainless) (natural protein)
  Kd: 820 pM

## FVIII 336(P4-P3')562/Ala108Ile variant (B-domainless) (natural protein)
  Kd: 910 pM

## FVIII 336(P4-P3')562/Ala108Ile/Asp519Val/Glu665Val variant (B-domainless) (natural protein)
  Kd: 1000 pM

## FVIII 336(P4-P3')562/Asp519Val/Glu665Val variant (B-domainless) (natural protein)
  Kd: 870 pM

## FVIII Ala108Ile variant (B-domainless) (natural protein)
  Kd: 970 pM

## FVIII Asp519Val/Glu665Val variant (B-domainless) (natural protein)
  Kd: 900 pM

## WT FVIII (B-domainless factor VIII, lacking residues Gln744-Ser1637) (natural protein)
  Kd: 950 pM

Reference: PMC4470385
